Results: PMC3117017

Target: Nluc2-H2AX (N-terminal fragment of firefly luciferase 2 fused to the N-terminus of histone H2AX) (UniProt P16104)
Test: split reporter

- reporter activity, fold above background (within 3 hour of 6 Gy x-rays): 5 fold
Substance: MDC1 BRCT domain fused to the C-terminal fragment of firefly luciferase 2 (Cluc) (domain or fragment)
